Test results: patent US20190352335A1, “BRAIN TARGETING LONG-ACTING PROTEIN CONJUGATE” (HANMI PHARM. CO., LTD., priority 2016, published 2019)

Test: In vitro specific enzyme activity of idursulfase conjugate (4MU fluorescence)
Type: biochemical
Details: substrate 4MU-α-idopyraA-2, 37° C. 4 hours, then α-iduronidase 37° C. 24 hours; FIG. 5
Method: To examine the presence of any change in specific activity of idursulfase according to the preparation of idursulfase-10 K PEG-Fc-BTP22 conjugate, an in vitro experiment for specific activity of enzymes was performed, 4-Methylumbelliferyl α-L-idopyranosiduronic acid-2-sulfate sodium salt (4MU-α-idopyraA-2), which is known as an enzyme substrate for idursulfase, was reacted with idursulfase β and IDS-Fc-BTP22 at 37° C. for 4 hours, and then, reacted with α-iduronidase, which is a secondary reaction enzyme, at 37° C. for 24 hours. The enzyme activity of 4-methylumbelliferone (4 MU), the final product, was measured by the measurement of the fluorescence of the corresponding substance (FIG. 5).
In particular, the values of enzyme activity were calculated in terms of specific activity per converted rate of weight (μg).

B1: idursulfase (protein, UniProt P22304 34-455; P22304 456-550, looked up)
Iduronate 2-sulfatase 42 kDa …: TDALNVLLIIVDDLRPSLGCYGDKLVRSPNIDQLASHSLLFQNAFAQQAVCAPSRVSFLTGRRPDTTRLYDFNSYWRVHAGNFSTIPQYFKENGYVTMSVGKVFHPGISSNHTDDSPYSWSFPPYHPSSEKYENTKTCRGPDGELHANLLCPVDVLDVPEGTLPDKQSTEQAIQLLEKMKTSASPFFLAVGYHKPHIPFRYPKEFQKLYPLENITLAPDPEVPDGLPPVAYNPWMDIRQREDVQALNISVPYGPIPVDFQRKIRQSYFASVSYLDTQVGRLLSALDDLQLANSTIIAFTSDHGWALGEHGEWAKYSNFDVATHVPLIFYVPGRTASLPEAGEKLFPYLDPFDSASQLMEPGRQSMDLVELVSLFPTLAGLAGLQVPPRCPVPSFHVELCREGKNLLKHFRFRDLEEDPYLPG
Iduronate 2-sulfatase 14 kDa …: NPRELIAYSQYPRPSDIPQWNSDKPSLKDIKIMGYSIRTIDYRYTVWVGFNPDEFLANFSDIHAGELYFVDSDPLQDHNMYNDSQGGDLFQLLMP
notes: purified type of iduronate-2-sulfatase (Shire, Ireland), approximately 72 kDa
With B1 the enzyme activity (specific activity per weight of idursulfase part) was 23.4 ± 1.94 nmol/min/µg.
